From patent US20180037654A1 (ADURO BIOTECH HOLDINGS EUROPE B V, published 2018)
Where a chain is given by its changes, count along the chain named. Names may count otherwise. Each block holds one binder with its values, some of them ahead of it.

Legend:
[1] = target: T1, human CTLA-4 (Y166G and Y183G) expressed on CHO-K1.hCTLA-4 cells (human, UniProt P16410 36-223); test: CELISA on CHO-K1.hCTLA-4 cells
Description: Binding of the humanized antibodies to hCTLA-4 was studied in CELISA format. CHO-K1.hCTLA-4 cells were seeded in culture medium (DMEM-F12 (Gibco) with 10% Fetal Bovine Serum (Hyclone) and Pen/Strep (Gibco)) in tissue culture plates and cultured at 37° C., 5% CO₂ and 95% humidity until they were confluent. Subsequently, culture medium was removed and cells were incubated for 1 hour at 37° C., 5% CO₂ and 95% humidity with purified hCTLA-4 antibodies (10 μg/ml and dilutions thereof). Next, cells were washed with PBS/0.05% Tween (PBST) and incubated for 1 hour at 37° C., 5% CO₂ and 95% humidity with goat-anti-human IgG-HRP (Southern Biotechnology) or goat-anti-mouse IgG-HRP (Southern Biotechnology). Subsequently, cells were washed 3 times with PBST and anti-hCTLA-4 immunoreactivity was visualized with TMB Stabilized Chromagen (Invitrogen). Reactions were stopped with 0.5 M H₂SO₄ and absorbances were read at 450 and 610 nm.
Target sequence in this assay (P16410 36-223 Y201G/Y218G limits assumed): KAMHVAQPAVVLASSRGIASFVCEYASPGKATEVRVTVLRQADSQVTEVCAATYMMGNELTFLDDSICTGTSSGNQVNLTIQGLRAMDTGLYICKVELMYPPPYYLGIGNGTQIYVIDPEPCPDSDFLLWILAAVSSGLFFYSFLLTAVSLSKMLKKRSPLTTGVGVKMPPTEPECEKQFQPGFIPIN

[2] = target: T1, human CTLA-4 (Y166G and Y183G) …; test: CELISA on CHO-K1.hCTLA-4 cells (Example 6)
Description: (§1) In short, CELISA for hCTLA-4 binding was performed on CHO-K1.hCTLA-4 cells. […] Once the cells were confluent culture medium was removed and cells were incubated for 1 hour with the hCTL4.27 antibodies and control antibodies (10 μg/ml and dilutions thereof) at 37° C., 5% CO₂ and 95% humidity. […] Cells were then washed with PBST followed by addition of Streptavidin-HRP conjugate on the cells, which was incubated for 1 hour at 37° C., 5% CO₂ and 95% humidity. […] Reactions were stopped with 0.5 M H₂SO₄ and absorbances were read at 450 and 610 nm. IC50 values represent the concentration at which half of the inhibition is observed.

[3] = target: T1, human CTLA-4 (Y166G and Y183G) …; test: CELISA, blockade of biotinylated hCD80/Fc binding to CHO-K1.hCTLA-4 cells
Description: CHO-K1.hCTLA-4 cells were seeded in tissue culture plates and incubated at 37° C., 5% CO₂ and 95% humidity in culture medium. Once the cells were confluent culture medium was removed and cells were incubated for 1 hour with the humanized hCTL4.27 antibody variants (10 μg/ml and dilutions thereof) at 37° C., 5% CO₂ and 95% humidity. […] Cells were then washed with PBST followed by addition of Streptavidin-HRP conjugate on the cells, which was incubated for 1 hour at 37° C., 5% CO₂ and 95% humidity. […] Reactions were stopped with 0.5 M H₂SO₄ and absorbances were read at 450 and 610 nm. […] IC50 values represent the concentration at which half of the inhibition is observed.
Target sequence in this assay (P16410 36-223 Y201G/Y218G limits assumed): as above

[4] = target: T1, human CTLA-4 (Y166G and Y183G) …; test: CELISA, blockade of biotinylated hCD80/Fc binding to CHO-K1.hCTLA-4 cells (Example 6)
Description: as §1

[5] = target: T1, human CTLA-4 (Y166G and Y183G) …; test: CELISA, blockade of biotinylated hCD86/Fc binding to CHO-K1.hCTLA-4 cells (Example 6)
Description: as §1

[6] = target: T2, human CTLA-4 (human, UniProt P16410 36-223); test: CELISA on CHO-K1 cells transiently transfected with human CTLA-4, panel Human
T2 construct: Endogenous CTLA-4 of stimulated human CD3+ T cells (stained after fixation and permeabilization) and membrane CTLA-4 of the Jurkat reporter cells; also called hCTLA-4; CTLA-4 expressed on human CD3+ T cells
T2 sequence: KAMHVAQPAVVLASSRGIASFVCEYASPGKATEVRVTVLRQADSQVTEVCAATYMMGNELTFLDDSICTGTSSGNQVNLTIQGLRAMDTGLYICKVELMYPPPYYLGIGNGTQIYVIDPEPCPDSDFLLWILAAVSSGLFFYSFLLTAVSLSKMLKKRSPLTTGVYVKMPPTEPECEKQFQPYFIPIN
Description: (§2) The cDNAs encoding these constructs (SEQ ID NO: 41 and 43, respectively) were synthesized and subcloned into the pCI-Neo vector (GeneArt). […] To this end CHO-K1 cells were transiently transfected, using Lipofectamine 2000 (Invitrogen), with the pCI-Neo vectors expressing human CTLA-4 (hCTLA-4), mouse CTLA-4 (mCTLA-4) (SEQ ID NO: 45), Hum-Mou-CTLA-4, and Mou-Hum-CTLA-4 respectively. The transfected cells were cultured at 37° C., 5% CO₂ and 95% humidity in medium (DMEM-F12 (Gibco) with 5% New Born Calf serum (Biowest) and Pen/Strep (Gibco)) until confluent. Subsequently, cells were trypsinized and seeded in tissue culture plates and cultured at 37° C., 5% CO₂ and 95% humidity in culture medium until confluent. Then, culture medium was removed and cells were incubated for 1 hour at 37° C., 5% CO₂ and 95% humidity with hCTLA-4 antibodies. Next, cells were washed with PBS/0.05% Tween (PBST) and incubated for 1 hour at 37° C., 5% CO₂ and 95% humidity with 1:2,000 goat-anti-human IgG-HRP (Jackson Immunoresearch). After that, cells were washed 3 times with PBST and anti-CTLA-4 immunoreactivity was visualized with TMB Stabilized Chromagen (Invitrogen).

[7] = target: T3, Hum-Mou-CTLA-4 (human/mouse chimera); test: CELISA on CHO-K1 cells transiently transfected with Hum-Mou-CTLA-4, panel Human/Mouse
T3 construct: Human residues on strand 1, 2, 5 and 6 and mouse residues on strand 3, 4, 7 and 8; transiently expressed on CHO-K1 cells; also called human-mouse variant; human-mouse exchange mutant
T3 chain: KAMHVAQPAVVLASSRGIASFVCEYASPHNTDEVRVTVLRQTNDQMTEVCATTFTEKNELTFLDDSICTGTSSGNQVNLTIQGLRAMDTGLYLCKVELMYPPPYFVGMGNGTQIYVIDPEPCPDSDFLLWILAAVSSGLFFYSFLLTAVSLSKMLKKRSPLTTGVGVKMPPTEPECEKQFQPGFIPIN
Description: as §2

[8] = target: T4, Mou-Hum-CTLA-4 (mouse/human chimera); test: CELISA on CHO-K1 cells transiently transfected with Mou-Hum-CTLA-4, panel Mouse/Human
T4 construct: Mouse residues on strand 1, 2, 5 and 6 and human residues on strand 3, 4, 7 and 8; transiently expressed on CHO-K1 cells; also called mouse-human variant; mouse-human exchange mutant
T4 chain: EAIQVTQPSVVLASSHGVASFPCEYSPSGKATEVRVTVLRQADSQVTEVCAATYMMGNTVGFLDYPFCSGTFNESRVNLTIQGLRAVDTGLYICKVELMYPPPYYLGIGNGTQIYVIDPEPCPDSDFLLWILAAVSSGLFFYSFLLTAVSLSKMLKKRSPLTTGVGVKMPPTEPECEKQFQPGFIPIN
Description: as §2

[9] = target: T5, rhCTLA-4/Fc/6His (human); test: BLI (Octet RED96), antibody amine-coupled to biosensor, rhCTLA-4/Fc 2.5-40 nM, 1:1 global fit
T5 construct: Bought from R&D Systems
Description: hCTLA4.27 binding kinetics and equilibrium binding constants were profiled using […] on the Octet RED96 and compared to several antibodies known in the art. […] Amine-reactive biosensors were pre-wet by immersing them in wells containing 0.1M MES pH=5.5 for 10 minutes. The biosensors were then activated using a 0.1M NHS/0.4M EDC mixture for 5 minutes. Antibodies were coupled by immersing the biosensors in a solution of 2.5 or 12 ug/mL antibody in 0.1M MES for 7.5 minutes. The biosensor surface was quenched using a solution of IM ethanolamine for 5 minutes. Biosensors were equilibrated in Octet kinetics buffer (ForteBio) for 5 minutes. Association of rhCTLA-4/Fc (R&D Systems) was observed by placing the biosensors in wells containing various rhCTLA-4/Fc concentrations (2.5-40 nM) and monitoring interferometry for 15 minutes. Dissociation was measured after transfer of the biosensors into kinetics buffer and monitoring of the interferometry signal for 45 minutes. The assay was run with a plate temperature of 30° C. The observed on and off rates (kon and kdis) were fit using a 1:1 binding global fit model comprising all concentrations tested, and the equilibrium binding constant KD was calculated.

[10] = target: T1, human CTLA-4 (Y166G and Y183G) …; test: CELISA, blockade of biotinylated hCD80/Fc binding to CHO-K1.hCTLA-4 cells (Example 6); blockade of hCD80/Fc binding to CHO-K1.hCTLA-4 cells
Description: as §1

T5 sequence (chain, as listed by the source limits assumed): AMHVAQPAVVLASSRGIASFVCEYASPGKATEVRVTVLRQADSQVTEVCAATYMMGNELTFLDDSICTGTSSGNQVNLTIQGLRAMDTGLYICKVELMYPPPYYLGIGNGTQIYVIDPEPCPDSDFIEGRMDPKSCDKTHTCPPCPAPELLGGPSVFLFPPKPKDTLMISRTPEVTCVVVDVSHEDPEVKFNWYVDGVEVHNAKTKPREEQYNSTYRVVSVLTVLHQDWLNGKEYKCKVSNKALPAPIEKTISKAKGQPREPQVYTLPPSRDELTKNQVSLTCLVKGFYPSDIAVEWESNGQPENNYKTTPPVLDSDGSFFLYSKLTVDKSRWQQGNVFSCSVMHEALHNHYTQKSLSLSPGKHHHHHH

B2: hCTLA4.27A.C1 (antibody, V domains shown)
VH: QVQLQQPGAVLVRPGVSVKLSCKASGYSFTTYWMNWVKQRPGQGLEWIGMIHPSDSETSLNQAFKDKATLTIDKSSSTAYMQLSSPTSEDSAVYFCARMGRRNPYYFDYWGQGTTLTVSS
VL: DIQMTQSPVSLSVSVGETVTITCRPSENLYTNLAWYQQKQGKSPQLLVYGATNLADGVPSRFSGSGSGTQYSLRINSLQSEDFGTYYCQHLWGTPFTFGSGTKLELK
notes: Chimeric: mouse variable domains on human IgG1, kappa; also called hCTLA4.27A chimeric hIgG1
EC50 [1]: 0.022 nM
EC50 [2]: 0.034 nM
IC50 [3]: 1.53 nM
IC50 [4]: 1.45 nM
IC50 [5]: 1.18 nM

B3: hCTLA4.27A (antibody, V domains shown)
VH: B2 VH
VL: B2 VL
notes: also called mouse hCTLA4.27A; parental antibody
EC50 [1]: 0.048 nM
EC50 [2]: 0.053 nM
IC50 [3]: 2.17 nM
IC50 [5]: 2.17 nM
Kd [9]: 2 nM
koff [9]: 0.00045 s⁻¹
kon [9]: 500000 M⁻¹ s⁻¹
IC50 [10]: 2.71 nM

B4: 10D1 (antibody, V domains shown)
VH: QVQLVESGGGVVQPGRSLRLSCAASGFTFSSYTMHWVRQAPGKGLEWVTFISYDGNNKYYADSVKGRFTISRDNSKNTLYLQMNSLRAEDTAIYYCARTGWLGPFDYWGQGTLVTVSS
VL: not shown
EC50 (read off the curve) [8]: ~0.07 nM

B5: hCTLA4.27H4L3 (antibody, human IgG4 S228P, kappa, V domains shown)
VH: EVQLVQSGAEVKKPGASVKVSCKASGYSFTTYWMNWVRQAPGQGLEWMGMIHPSDSETSLNQAFKDRVTMTRDTSTSTVYMELSSLRSEDTAVYYCARMGRRNPYYFDYWGQGTLVTVSS
VL: DIQMTQSPSSLSASVGDTVTITCRPSENLYTNLAWYQQKPGKAPKLLLYGATNLADGVPSRFSGSGSGTDYTLTISSLQSEDFATYYCQHLWGTPFTFGQGTKLEIKR
notes: Humanized, human IgG4 (S228P) kappa; H4 read as hCTLA4.27VH4, L3 as hCTLA4.27VL3
EC50 [1]: 0.051 nM
IC50 [3]: 3.26 nM

B7: hCTLA4.27H6L2 (antibody, human IgG4 S228P, kappa, V domains shown)
VH: EVQLLESGPELVRPGSSVKISCKASGYSFTTYWMNWVKQRPGKGLEWIGMIHPSDSETSLNQAFKDKVKLTAATSASIAYLEFSSLRNEDSAVYYCARMGRRNPYYFDYWGQGTLVTVSS
VL: B5 VL with T18R, L48I, D70E, Y71F, T72S, T74S, S80P, Q100G, L104V
notes: Humanized, human IgG4 (S228P) kappa; H6 read as hCTLA4.27VH6, L2 as hCTLA4.27VL2
EC50 [1]: 0.027 nM
IC50 [3]: 1.8 nM

B8: hCTLA4.27H2L2 (antibody, human IgG4 S228P, kappa, V domains shown)
VH: EVQLVQSGAVLVKPGASVKVSCKASGYSFTTYWMNWVRQRPGKGLEWIGMIHPSDSETSLNQAFKDKVTITADESTSTAYMQLSSLRSEDTAVYYCARMGRRNPYYFDYWGQGTTVTVSS
VL: B5 VL with T18R, L48I, D70E, Y71F, T72S, T74S, S80P, Q100G, L104V
notes: Humanized, human IgG4 (S228P) kappa; H2 read as hCTLA4.27VH2, L2 as hCTLA4.27VL2
EC50 [1]: 0.044 nM
IC50 [3]: 2.59 nM

B10: hCTLA4.27H4L5 (antibody, human IgG4 S228P, kappa, V domains shown)
VH: B5 VH
VL: B5 VL with S7A, T18R, S80A, Q100G
notes: Humanized, human IgG4 (S228P) kappa; H4 read as hCTLA4.27VH4, L5 as hCTLA4.27VL5
EC50 [1]: 0.061 nM
IC50 [3]: 3.08 nM

More lines, main results first:

EC50 [1]: 0.033 nM
EC50 [2]: 0.053 nM
IC50 [3]: 1.61 nM
IC50 [4]: 1.6 nM
IC50 [5]: 1.21 nM
EC50 (read off the curve) [6]: ~0.06 nM
EC50 (read off the curve) [7]: ~0.08 nM
B1: hCTLA4.27A.C4 (antibody, V domains shown)
VH: B2 VH
VL: B2 VL
notes: Chimeric: mouse variable domains on human IgG4, kappa; also called hCTLA4.27A chimeric hIgG4
binding result [8]: no binding (tested: log nM about 1.8 (about 60 nM))

EC50 [1]: 0.047 nM
IC50 [3]: 2.52 nM
B6: hCTLA4.27H4L2 (antibody, human IgG4 S228P, kappa, V domains shown)
VH: B5 VH
VL: B5 VL with T18R, L48I, D70E, Y71F, T72S, T74S, S80P, Q100G, L104V
notes: Humanized, human IgG4 (S228P) kappa; H4 read as hCTLA4.27VH4, L2 as hCTLA4.27VL2

EC50 [1]: 0.045 nM
IC50 [3]: 2.72 nM
B9: hCTLA4.27H2L5 (antibody, human IgG4 S228P, kappa, V domains shown)
VH: B8 VH
VL: B5 VL with S7A, T18R, S80A, Q100G
notes: Humanized, human IgG4 (S228P) kappa; H2 read as hCTLA4.27VH2, L5 as hCTLA4.27VL5
